Consider 31 molecules from PMC10786891, “Massively parallel profiling of RNA-targeting CRISPR-Cas13d”.

Numbering of substitutions follows the chain as printed. In names and notes the source's numbering stands.

First the molecules themselves.
T1: EsCas13d, nuclease-dead (Eubacterium siraeum, UniProt B0MS50, R295A;H300A;R849A;H854A)
T1 sequence: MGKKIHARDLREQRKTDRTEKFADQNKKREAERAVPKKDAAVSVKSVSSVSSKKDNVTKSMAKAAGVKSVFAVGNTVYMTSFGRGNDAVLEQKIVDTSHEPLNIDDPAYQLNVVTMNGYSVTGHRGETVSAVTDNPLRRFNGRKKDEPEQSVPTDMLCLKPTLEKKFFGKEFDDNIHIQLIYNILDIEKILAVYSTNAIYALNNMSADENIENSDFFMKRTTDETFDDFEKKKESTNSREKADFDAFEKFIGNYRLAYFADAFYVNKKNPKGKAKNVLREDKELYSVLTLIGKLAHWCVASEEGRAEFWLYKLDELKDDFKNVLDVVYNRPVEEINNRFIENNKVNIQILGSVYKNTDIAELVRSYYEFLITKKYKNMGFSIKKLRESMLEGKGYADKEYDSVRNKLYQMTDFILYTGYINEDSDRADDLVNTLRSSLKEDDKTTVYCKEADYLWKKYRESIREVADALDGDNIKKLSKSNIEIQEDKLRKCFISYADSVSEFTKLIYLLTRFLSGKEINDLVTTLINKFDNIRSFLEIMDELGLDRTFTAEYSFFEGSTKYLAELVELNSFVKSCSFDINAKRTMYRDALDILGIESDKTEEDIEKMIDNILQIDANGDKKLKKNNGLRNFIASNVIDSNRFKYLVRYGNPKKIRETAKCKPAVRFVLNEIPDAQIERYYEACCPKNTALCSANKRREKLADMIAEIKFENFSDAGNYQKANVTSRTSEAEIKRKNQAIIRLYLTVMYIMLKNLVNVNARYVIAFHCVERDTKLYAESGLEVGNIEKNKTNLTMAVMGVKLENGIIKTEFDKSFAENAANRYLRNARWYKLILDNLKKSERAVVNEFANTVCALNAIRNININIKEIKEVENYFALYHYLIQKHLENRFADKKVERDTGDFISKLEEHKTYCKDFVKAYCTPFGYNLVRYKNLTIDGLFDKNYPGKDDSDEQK

B1: target 2 MT 5'PFS AUU 3'PFS AGU (mixed)
RNA 1: CACCCGUGCAAAAUUGCAGGGGUCUAAAACCUUCUCCAAAUUGUUUCAUCCU
RNA 2: GGGAAUGGAUCCACAUCUACGAAUUCAUUAGGAUGAAACAAUUUGGAGAAGAGUAGAUCGGAAGAGCACACGU
B2: target 2 MT 5'PFS ACU 3'PFS AUU (mixed)
RNA 1: B1 RNA 1
RNA 2: B1 RNA 2 with U28C, G53U
B3: target 2 MT 5'PFS CUG 3'PFS UAC (mixed)
RNA 1: B1 RNA 1
RNA 2: B1 RNA 2 with A27C, U29G, A52U, G53A, U54C
B4: target 2 MT 5'PFS AAA 3'PFS AAC (mixed)
RNA 1: B1 RNA 1
RNA 2: B1 RNA 2 with U28A, U29A, G53A, U54C
B5: target 2 MT 5'PFS UCU 3'PFS AUC (mixed)
RNA 1: B1 RNA 1
RNA 2: B1 RNA 2 with A27U, U28C, G53U, U54C
B6: target 2 MT 5'PFS GAU 3'PFS UUC (mixed)
RNA 1: B1 RNA 1
RNA 2: B1 RNA 2 with A27G, U28A, A52U, G53U, U54C
B7: target 2 MT 5'PFS GGA 3'PFS ACA (mixed)
RNA 1: B1 RNA 1
RNA 2: B1 RNA 2 with A27G, U28G, U29A, G53C, U54A
B8: target 2 MT 5'PFS AUU 3'PFS CGG (mixed)
RNA 1: B1 RNA 1
RNA 2: B1 RNA 2 with A52C, U54G
B9: target 2 MT 5'PFS GGA 3'PFS ACG (mixed)
RNA 1: B1 RNA 1
RNA 2: B1 RNA 2 with A27G, U28G, U29A, G53C, U54G
B10: target 2 MT 5'PFS UAU 3'PFS CAU (mixed)
RNA 1: B1 RNA 1
RNA 2: B1 RNA 2 with A27U, U28A, A52C, G53A
B11: target 2 MT 5'PFS GCA 3'PFS AGG (mixed)
RNA 1: B1 RNA 1
RNA 2: B1 RNA 2 with A27G, U28C, U29A, U54G
B12: target 2 MT 5'PFS AUU 3'PFS CGA (mixed)
RNA 1: B1 RNA 1
RNA 2: B1 RNA 2 with A52C, U54A
B13: target 2 MT 5'PFS GGA 3'PFS ACU (mixed)
RNA 1: B1 RNA 1
RNA 2: B1 RNA 2 with A27G, U28G, U29A, G53C
B14: target 2 MT 5'PFS AGA 3'PFS UAC (mixed)
RNA 1: B1 RNA 1
RNA 2: B1 RNA 2 with U28G, U29A, A52U, G53A, U54C
B15: target 2 MT 5'PFS UAG 3'PFS UGC (mixed)
RNA 1: B1 RNA 1
RNA 2: B1 RNA 2 with A27U, U28A, U29G, A52U, U54C
B16: target 2 MT 5'PFS UAG 3'PFS UGU (mixed)
RNA 1: B1 RNA 1
RNA 2: B1 RNA 2 with A27U, U28A, U29G, A52U
B17: target 2 MT 5'PFS AGG 3'PFS CUA (mixed)
RNA 1: B1 RNA 1
RNA 2: B1 RNA 2 with U28G, U29G, A52C, G53U, U54A
B18: target 2 MT 5'PFS AGA 3'PFS UAU (mixed)
RNA 1: B1 RNA 1
RNA 2: B1 RNA 2 with U28G, U29A, A52U, G53A
B19: target 2 MT 5'PFS CUG 3'PFS UAG (mixed)
RNA 1: B1 RNA 1
RNA 2: B1 RNA 2 with A27C, U29G, A52U, G53A, U54G
B20: target 2 MT 5'PFS AAC 3'PFS CCG (mixed)
RNA 1: B1 RNA 1
RNA 2: B1 RNA 2 with U28A, U29C, A52C, G53C, U54G
B21: target 2 MT 5'PFS CAU 3'PFS ACG (mixed)
RNA 1: B1 RNA 1
RNA 2: B1 RNA 2 with A27C, U28A, G53C, U54G
B22: target 2 MT 5'PFS ACU 3'PFS AUG (mixed)
RNA 1: B1 RNA 1
RNA 2: B1 RNA 2 with U28C, G53U, U54G
B23: target 2 MT 5'PFS UGC 3'PFS CAC (mixed)
RNA 1: B1 RNA 1
RNA 2: B1 RNA 2 with A27U, U28G, U29C, A52C, G53A, U54C
B24: target 2 MT 5'PFS CGU 3'PFS CGC (mixed)
RNA 1: B1 RNA 1
RNA 2: B1 RNA 2 with A27C, U28G, A52C, U54C
B25: target 2 MT 5'PFS ACU 3'PFS AUC (mixed)
RNA 1: B1 RNA 1
RNA 2: B1 RNA 2 with U28C, G53U, U54C
B26: target 2 MT 5'PFS AAC 3'PFS CCA (mixed)
RNA 1: B1 RNA 1
RNA 2: B1 RNA 2 with U28A, U29C, A52C, G53C, U54A
B27: target 2 MT 5'PFS GGA 3'PFS ACC (mixed)
RNA 1: B1 RNA 1
RNA 2: B1 RNA 2 with A27G, U28G, U29A, G53C, U54C
B28: target 2 MT 5'PFS CAU 3'PFS ACU (mixed)
RNA 1: B1 RNA 1
RNA 2: B1 RNA 2 with A27C, U28A, G53C
B29: target 1 insU 3' of 5,insA 3' of 4 (mixed)
RNA 1: CACCCGUGCAAAAAUGCAGGGGUCUAAAACUGAGCGGAUAACCUCUCUAUGG
RNA 2: GGGAAUGGAUCCACAUCUACGAAUUCGUACCAUAGAGAGGUUAUCCGUCAUCACCGAGAUCGGAAGAGCACACGU
B30: target 1 insU 3' of 18,insG 3' of 7 (mixed)
RNA 1: B29 RNA 1
RNA 2: GGGAAUGGAUCCACAUCUACGAAUUCGUACCAUAUGAGAGGUUAUCGCGCUCACCGAGAUCGGAAGAGCACACGU
B31: target 1 C4U,A20C (mixed)
RNA 1: B29 RNA 1
RNA 2: GGGAAUGGAUCCACAUCUACGAAUUCGUACCCUAGAGAGGUUAUCCGUUCACCGAGAUCGGAAGAGCACACGU

The target of this data set is T1, EsCas13d, nuclease-dead. In words: crRNA (strand 1, pre-loaded); Mg2+; 40 mM Tris-HCl pH 7.5, 150 mM NaCl, 6 mM MgCl2, 1 mM DTT, 0.1% Tween-20, 0.2 mg/ml BSA; 25 C; 10 min per concentration, then washed. The note with it: tags: His6-TwinStrep-SUMO cleaved; N-terminal SNAP kept (SNAP-Surface 488); label: 3' end held by stalled T7 RNA polymerase.
B1 returned a Kd of 4.5 ± 0.4 nM.

In turn, B2 registered a Kd of 4.4 ± 0.6 nM.

On to B3, for which the Kd is 2.76 ± 0.35 nM. Compared with the last molecule, the Kd is about 1.6-fold lower.

The molecule B4 showed a Kd of 4.6 ± 0.7 nM. This Kd is about 1.7-fold higher than that of the molecule before.

For the molecule B5, the Kd is 7.3 ± 1 nM.

On to B6, for which binding was characterised by a dissociation constant (Kd) of 28 ± 7 nM.

The molecule B7 registered a Kd of 10.4 ± 1.2 nM.

Take B8: the Kd amounted to 9.6 ± 1.7 nM.

Molecule B9 gave a Kd of 13.9 ± 1.4 nM.

As to B10, the Kd came to 24.1 ± 2.7 nM.

With B11, the Kd is 13.1 ± 1.8 nM.

With B12, the affinity, expressed as Kd, was 5.5 ± 0.4 nM. Against the preceding molecule, the Kd is about 2.4-fold lower.

Molecule B13 showed a Kd of 9.8 ± 0.7 nM.

Take B14: the Kd worked out at 6.5 ± 1.1 nM.

In the case of B15, the Kd came out at 2.73 ± 0.25 nM.

As to B16, the Kd came out at 4.9 ± 0.5 nM.

For the molecule B17, binding was put at a Kd of 6.7 ± 1.1 nM.

With B18, the Kd stood at 7.4 ± 1.4 nM.

B19 returned a Kd of 3.1 ± 0.5 nM.

As to B20, binding was put at a Kd of 5.9 ± 0.6 nM.

Turning to B21, the Kd worked out at 7.9 ± 2.5 nM.

On to B22, for which binding was characterised by a dissociation constant (Kd) of 4.9 ± 0.6 nM.

In the case of B23, binding was characterised by a dissociation constant (Kd) of 18 ± 4 nM.

B24: the Kd turned out to be 11.1 ± 1.7 nM. Compared with the last molecule, the Kd is about 1.6-fold lower.

B25 displayed a Kd of 4.1 ± 0.4 nM.

In the case of B26, the Kd is 13 ± 4 nM. Against the preceding molecule, the Kd is about 3.2-fold higher.

B27 yielded a Kd of 14.1 ± 2.6 nM.

B28: the Kd worked out at 9 ± 1.9 nM.

Consider B29, for which binding was put at a Kd of 16.2 ± 1.2 nM.

Take B30: binding was characterised by a dissociation constant (Kd) of 25.5 ± 1.2 nM.

For B31, the Kd is approximately 90 nM.
